Data as given in patent US20200079850A1 (SUTRO BIOPHARMA, published 2020).

Molecular target: T1, hLAG3 (Acro Biosystems), SPR analyte (human, UniProt P18627 23-450)
T1 construct: also called human LAG3 kinetics
T1 sequence: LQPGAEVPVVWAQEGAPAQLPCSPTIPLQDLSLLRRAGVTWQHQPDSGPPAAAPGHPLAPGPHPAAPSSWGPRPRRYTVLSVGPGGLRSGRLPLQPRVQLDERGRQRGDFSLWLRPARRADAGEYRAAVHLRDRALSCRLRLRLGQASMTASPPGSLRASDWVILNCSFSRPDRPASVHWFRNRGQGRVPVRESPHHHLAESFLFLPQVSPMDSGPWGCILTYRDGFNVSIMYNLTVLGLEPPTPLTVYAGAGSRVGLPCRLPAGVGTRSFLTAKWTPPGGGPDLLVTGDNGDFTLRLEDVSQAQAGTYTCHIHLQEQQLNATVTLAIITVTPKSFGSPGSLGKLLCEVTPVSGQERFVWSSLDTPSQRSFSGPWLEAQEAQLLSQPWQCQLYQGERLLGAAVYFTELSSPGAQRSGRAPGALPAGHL
Assay: SPR (Biacore), antibody captured by anti-Fc, hLAG3 as analyte, 25 C
Experimental: Anti-Fc polyclonal antibodies were immobilized onto a CMS chip (GE Life Sciences) using amine coupling chemistry (from Amine Coupling Kit, GE Life Sciences). The immobilization steps were carried out at a flow rate of 25 μl/min in 1×HBS-EP+buffer (GE Life Sciences; 10× Stock diluted before use). The sensor surfaces were activated for 7 min with a mixture of NHS (0.05 M) and EDC (0.2 M). The Anti-Fc antibodies were injected over all 4 flow cells at a concentration of 25 ug/ml in 10 mM sodium acetate, pH 4.5, for 7 min. Ethanolamine (1 M, pH 8.5) was injected for 7 min to block any remaining activated groups. An average of 12,000 response units (RU) of capture antibody was immobilized on each flow cell.
Kinetic binding experiments were performed at 25° C. using 1×HBS-EP+buffer. Test and control antibodies were injected over the anti-Fc surface at concentrations of 5-10 μg/mL for 12 seconds at a flow rate of 10 μl/min on flow cells 2, 3 and 4, followed by a buffer wash for 30 seconds at the same flow rate. Kinetic characterization of antibody samples was carried out with a dilution series of antigen and 1 injection of 0 nM antigen. After capturing ligand (antibody) on the anti-Fc surface, the analyte (hPD1 or hLAG3, Acro Biosystems, Newark, Del.) was bound at 100, 25, 6.25 and 0 nM for 180 seconds, followed by a 450 second dissociation phase at a flow rate of 50 μl/min. Between each ligand capture and analyte binding cycle, regeneration was carried out using 2 injections of 10 mM Glycine pH 2.0 for 30 seconds at 30 μL/min, followed by a 30 second buffer wash step.
The data was fit with the Biacore T200 Evaluation software, using a 1:1 Langmuir binding model. KD (affinity, nM) was determined as a ratio of the kinetic rate constants calculated from the fits of the association and dissociation phases.

| Binder | Kd [nM] | koff [s⁻¹] | kon [M⁻¹ s⁻¹] |
| --- | --- | --- | --- |
| PD-1/LAG3 Bi-specific Construct C: aPD1 1353-G10 Vk1-39LC scFvFc zwB V262E; aLAG3 1449-G09.2 Fab zwA V262E (bispecific antibody, human IgG1, kappa, The N-terminal Met is not included) scFv: EVQLVQSGAEVKKPGASVKVSCKASGYRFPHYGISWVRQAPGQGLEWMGWISAYNGNTNYAQKLQGRVTMTTDTSTNTAYMELRSLRSDDTAVYYCARDVDYGTGSGYWGQGTLVTVSSGGGGSGGGGSGGGGSDIQLTQSPSSLSASVGDRVTITCSGDALPKQYAYWYQQKPGKAPKLLIYKDTERPSGVPSRFSGSSSGTKVTLTISSLQPEDFATYYCQSADNSITYRVFGGGTKVEIKAAGSDQEPKSSDKTHTCPPCPAPELLGGPSVFLFPPKPKDTLMISRTPEVTCEVVDVSHEDPEVKFNWYVDGVEVHNAKTKPREEQYNSTYRVVSVLTVLHQDWLNGKEYKCKVSNKALPAPIEKTISKAKGQPREPQVYVLPPSREEMTKNQVSLLCLVKGFYPSDIAVEWESNGQPENNYLTWPPVLDSDGSFFLYSKLTVDKSRWQQGNVFSCSVMHEALHNHYTQKSLSLSPGK heavy: not shown light: not shown | 0.519 | 0.000694 | 1.34e+06 |
| PD-1/LAG3 Bi-specific Construct B: aPD1 1353-G10 scFvFc zwB R28T/P30D/H31S V262E; aLAG3 1449-G09.2 Fab zwA V262E (bispecific antibody, human IgG1, kappa, The N-terminal Met is not included) scFv: EVQLVQSGAEVKKPGASVKVSCKASGYTFDSYGISWVRQAPGQGLEWMGWISAYNGNTNYAQKLQGRVTMTTDTSTNTAYMELRSLRSDDTAVYYCARDVDYGTGSGYWGQGTLVTVSSGGGGSGGGGSGGGGSSYELTQPPSVSVSPGQTARITCSGDALPKQYAYWYQQKPGQAPVMVIYKDTERPSGIPERFSGSSSGTKVTLTISGVQAEDEADYYCQSADNSITYRVFGGGTKVTVLAAGSDQEPKSSDKTHTCPPCPAPELLGGPSVFLFPPKPKDTLMISRTPEVTCEVVDVSHEDPEVKFNWYVDGVEVHNAKTKPREEQYNSTYRVVSVLTVLHQDWLNGKEYKCKVSNKALPAPIEKTISKAKGQPREPQVYVLPPSREEMTKNQVSLLCLVKGFYPSDIAVEWESNGQPENNYLTWPPVLDSDGSFFLYSKLTVDKSRWQQGNVFSCSVMHEALHNHYTQKSLSLSPGK heavy: not shown light: not shown | 0.0944 | 0.000138 | 1.46e+06 |
